{"source": "paper PMC9740503", "about": "“[^68Ga]Ga-DATA^5m-LM4, a PET Radiotracer in the Diagnosis of SST2R-Positive Tumors: Preclinical and First Clinical Results” (International Journal of Molecular Sciences, 2022)", "key": {"[1]": {"test_system": "HEK293-SST2R cells", "test": "Radioligand uptake/internalization in HEK293-SST2R cells", "type": "cell-based, human", "conditions": "1 h at 37 °C, 0.5 pmol total peptide, specific, % of total added activity, mean ± sd, 3 independent experiments in triplicate", "procedure": "This distinct cell distribution pattern between [^67Ga]Ga-DATA^5m-LM4 and [^67Ga]Ga-DOTA-TOC is consistent with an SST2R antagonist and agonist behavior, respectively. […] Cells were seeded in poly-lysine coated six-well plates (1 × 10^6/well) and grew to confluent monolayers overnight. At the day of the experiment, plates were placed on ice and rinsed twice with chilled internalization medium (DMEM Glutamax-I supplemented by 1% (v/v) FBS). […] In the upper three wells internalization medium was added (150 μL, total) and in the lower three a solution of TATE to a final concentration of 1 μM (150 μL, non-specific). After 60 min incubation at 37 °C, the medium was removed and cells were washed with ice-cold 0.5% BSA-PBS. Cells were incubated (2 × 5 min) at ambient temperature in acid wash buffer (50 mM glycine in 0.1 M NaCl, pH 2.8) and supernatants were collected (membrane-bound fraction). After rinsing with 0.5% BSA-PBS, the cells were lysed by treatment with 1 N NaOH; the lysates were collected (internalized fraction). Samples were measured in the γ-counter and cell-associated/internalized radioactivity vs. total added activity per well was calculated. Specific values were obtained by subtracting values in the presence of excess TATE (lower well triplicates) from those without the addition of blocker (upper well triplicates). […]"}, "[2]": {"test": "Biodistribution in SCID mice bearing twin HEK293-SST2R and wtHEK293 tumors", "type": "in vivo", "conditions": "male, mouse, iv, 10 pmol, total radioactivity", "procedure": "Inocula containing a suspension of freshly-harvested HEK293-SST2R cells (150 μL, 1.2 × 10^7cells in normal saline) and wtHEK293 cells (150 μL, 0.6 × 10^7 cells in normal saline) were subcutaneously (sc) injected in the right and left flanks of male SCID mice (21.5–25.0 g body weight, six weeks of age on arrival day; NCSR “Demokritos” Animal House, Athens, Greece). Mice were kept under aseptic conditions for about 2 weeks until well-palpable tumors (300–600 mg) were grown at the inoculation sites. […] Samples of blood and tissues of interest were collected along with implanted tumors, weighted and counted in the gamma counter. Biodistribution results were calculated as percent of the injected activity per gram tissue (%IA/g) with the aid of appropriate standards of the administered dose and the Microsoft Excel program. Results are presented as mean %IA/g values ± sd, n = 4 per time point, as determined by the PRISM^TM 6.0 GraphPad software (San Diego, CA, USA). […]"}, "[3]": {"molecular_target": "T1, human SST2R (Homo sapiens, UniProt P30874)", "T1 construct": "expressed in transfected cells", "T1 sequence (P30874 whole entry)": "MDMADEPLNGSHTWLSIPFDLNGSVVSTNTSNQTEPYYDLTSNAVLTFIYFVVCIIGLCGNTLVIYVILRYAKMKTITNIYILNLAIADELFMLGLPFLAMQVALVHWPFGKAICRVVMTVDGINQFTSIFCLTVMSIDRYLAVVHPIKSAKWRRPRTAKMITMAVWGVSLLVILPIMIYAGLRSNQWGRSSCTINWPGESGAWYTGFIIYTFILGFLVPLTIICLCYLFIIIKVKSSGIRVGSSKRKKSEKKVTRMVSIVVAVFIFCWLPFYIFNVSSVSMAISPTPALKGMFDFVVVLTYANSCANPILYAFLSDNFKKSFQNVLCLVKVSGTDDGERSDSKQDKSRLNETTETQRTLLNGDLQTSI", "test": "Competition binding against [125I-Tyr25]LTT-SS28 in HEK293-SST2R cell membranes", "conditions": "HEK293-SST2R cell membrane homogenates; 1 h at 22 °C; 50 mM HEPES pH 7.4 binding buffer; mean ± sd, n = 3 independent experiments in triplicate; read-out: IC50, displacement of [125I-Tyr25]LTT-SS28 from SST2R binding sites", "procedure": "The binding affinities of DATA^5m-LM4 and [^natGa]Ga-DATA^5m-LM4 for the human SST2R were determined via competition binding assays against [^125I-Tyr^25]LTT-SS28 in freshly harvested HEK293-SST2R cell membranes. As depicted in Figure 2, DATA^5m-LM4 as well as its [^natGa]Ga-tagged version displaced [^125I-Tyr^25]LTT-SS28 from SST2R-binding sites in the membrane homogenates in a monophasic and dose-dependent manner.\nCompetition binding assays for DATA^5m-LM4 and [^natGa]Ga-DATA^5m-LM4 were performed in freshly harvested HEK293-SST2R cell membranes against [^125I-Tyr^25]LTT-SS28 [30, 33]. […] Filters were collected and their activity measured in a γ-counter (automated multi-sample well-type instrument with a NaI(Tl) 3″ crystal, Canberra Packard Cobra^TM Quantum U5003/1, Auto-Gamma® counting system). The half-maximal inhibitory concentration (IC50) values were calculated by nonlinear regression for a one-site model applying the PRISM^TM 6.0 GraphPad software (San Diego, CA, USA) and represent mean IC50 ± sd values from at least three independent experiments were performed in triplicate."}, "[4]": {"test_system": "SST2R", "conditions": "against the same radioligand; read-out: IC50, SST2R autoradiography; cited from earlier work", "text": "On the other hand, by changing the metal to Lu the IC50 determined for [^natL ..."}}, "note": "Where two headings read alike, the source gives them in different places. Positions of bridges follow the written chain, without caps; N, C: chain ends. Non-standard residues stand in square brackets, D forms with d. Residues, ends and D or L forms follow the SMILES beside them. *: point of attachment. DOTA = O=C(O)CN1CCN(CC(=O)O)CCN(CC(=O)*)CCN(CC(=O)O)CC1; X1 = CN(CC(=O)O)C1(CCCCC(=O)*)CN(CC(=O)O)CCN(CC(=O)O)C1; dPhe(4-NHCONH2) = NC(=O)Nc1ccc(C[C@@H](N)C(=O)O)cc1; Phe(4-Cl) = N[C@@H](Cc1ccc(Cl)cc1)C(=O)O; 4Pal = N[C@@H](Cc1ccncc1)C(=O)O", "data": [{"compound": "C[C@@H](O)[C@@H]1NC(=O)[C@H](CCCCN)NC(=O)[C@@H](Cc2ccc(NC(N)=O)cc2)NC(=O)[C@H](Cc2ccc(O)cc2)NC(=O)[C@H](NC(=O)[C@H](Cc2ccc(Cl)cc2)NC(=O)CN2CCN(CC(=O)O)CCN(CC(=O)O)CCN(CC(=O)O)CC2)CSSC[C@@H](C(=O)N[C@H](Cc2ccc(O)cc2)C(N)=O)NC1=O", "note": "[[^67Ga]Ga-DOTA-LM3, metal not drawn] ({DOTA}-[Phe(4-Cl)][dC]Y[dPhe(4-NHCONH2)]KTC[dY]-NH2; disulfide 2-7)", "values": [{"measurement": "total cell uptake (membrane bound + internalized)", "setting": "[1]", "value": "2.51 ± 0.36", "unit": "%"}, {"measurement": "tissue uptake at 1 h", "setting": "[2]; HEK293-SST2R tumor (Tu+), 1 h pi, iv 10 pmol total peptide, mean ± sd, n = 4, read-out: Tu+ (HEK293-SST2R tumor) uptake", "value": "25.3 ± 6.23", "unit": "%ID/g"}, {"measurement": "tissue uptake at 4 h", "setting": "[2]; HEK293-SST2R tumor (Tu+), 4 h pi, iv 10 pmol total peptide, mean ± sd, n = 4, read-out: Tu+ (HEK293-SST2R tumor) uptake", "value": "16.8 ± 1.22", "unit": "%ID/g"}, {"measurement": "tissue uptake at 1 h", "setting": "[2]; in vivo, Blood uptake", "value": "1.18 ± 0.03", "unit": "%ID/g"}, {"measurement": "tissue uptake at 4 h", "setting": "[2]; in vivo, Blood uptake", "value": "1.73 ± 0.47", "unit": "%ID/g"}, {"measurement": "tissue uptake at 1 h", "setting": "[2]; in vivo, Femur uptake", "value": "1.39 ± 0.39", "unit": "%ID/g"}, {"measurement": "tissue uptake at 4 h", "setting": "[2]; in vivo, Femur uptake", "value": "0.67 ± 0.14", "unit": "%ID/g"}, {"measurement": "tissue uptake at 1 h", "setting": "[2]; in vivo, Heart uptake", "value": "1.54 ± 0.78", "unit": "%ID/g"}, {"measurement": "tissue uptake at 4 h", "setting": "[2]; in vivo, Heart uptake", "value": "0.66 ± 0.14", "unit": "%ID/g"}, {"measurement": "tissue uptake at 1 h", "setting": "[2]; in vivo, Intestines uptake", "value": "1.26 ± 0.52", "unit": "%ID/g"}, {"measurement": "tissue uptake at 4 h", "setting": "[2]; in vivo, Intestines uptake", "value": "1.41 ± 0.37", "unit": "%ID/g"}, {"measurement": "tissue uptake at 1 h", "setting": "[2]; in vivo, Kidneys uptake", "value": "36 ± 5.96", "unit": "%ID/g"}, {"measurement": "tissue uptake at 4 h", "setting": "[2]; in vivo, Kidneys uptake", "value": "37.6 ± 3.44", "unit": "%ID/g"}, {"measurement": "tissue uptake at 1 h", "setting": "[2]; in vivo, Liver uptake", "value": "1.82 ± 0.63", "unit": "%ID/g"}, {"measurement": "tissue uptake at 4 h", "setting": "[2]; in vivo, Liver uptake", "value": "1.43 ± 0.19", "unit": "%ID/g"}, {"measurement": "tissue uptake at 1 h", "setting": "[2]; in vivo, Lungs uptake", "value": "3 ± 0.77", "unit": "%ID/g"}, {"measurement": "tissue uptake at 4 h", "setting": "[2]; in vivo, Lungs uptake", "value": "1.21 ± 0.24", "unit": "%ID/g"}, {"measurement": "tissue uptake at 1 h", "setting": "[2]; in vivo, Muscle uptake", "value": "0.56 ± 0.22", "unit": "%ID/g"}, {"measurement": "tissue uptake at 4 h", "setting": "[2]; in vivo, Muscle uptake", "value": "0.25 ± 0.06", "unit": "%ID/g"}, {"measurement": "tissue uptake at 1 h", "setting": "[2]; in vivo, Pancreas uptake", "value": "1.49 ± 0.71", "unit": "%ID/g"}, {"measurement": "tissue uptake at 4 h", "setting": "[2]; in vivo, Pancreas uptake", "value": "1.24 ± 0.44", "unit": "%ID/g"}, {"measurement": "tissue uptake at 1 h", "setting": "[2]; in vivo, Spleen uptake", "value": "1.73 ± 0.85", "unit": "%ID/g"}, {"measurement": "tissue uptake at 4 h", "setting": "[2]; in vivo, Spleen uptake", "value": "1.06 ± 0.25", "unit": "%ID/g"}, {"measurement": "tissue uptake at 1 h", "setting": "[2]; in vivo, Stomach uptake", "value": "0.8 ± 0.17", "unit": "%ID/g"}, {"measurement": "tissue uptake at 4 h", "setting": "[2]; in vivo, Stomach uptake", "value": "0.5 ± 0.08", "unit": "%ID/g"}, {"measurement": "tissue uptake at 1 h", "setting": "[2]; wtHEK293 tumor (Tu-), 1 h pi, iv 10 pmol total peptide, mean ± sd, n = 4, read-out: Tu- (wtHEK293 tumor) uptake", "value": "1.45 ± 0.27", "unit": "%ID/g"}, {"measurement": "tissue uptake at 4 h", "setting": "[2]; wtHEK293 tumor (Tu-), 4 h pi, iv 10 pmol total peptide, mean ± sd, n = 4, read-out: Tu- (wtHEK293 tumor) uptake", "value": "1.13 ± 0.31", "unit": "%ID/g"}]}, {"compound": "[^natGa]Ga-DATA^5m-LM4: DATA5m-LM4 tagged with natural gallium (DATA5m-[Phe(4-Cl)][dC][4Pal][dPhe(4-NHCONH2)]KTC[dY]-NH2; disulfide 2-7; also: complexed with natural gallium)", "values": [{"measurement": "IC50", "setting": "[3]", "value": "1.61 ± 0.32", "unit": "nM"}]}, {"compound": "DOTA-DPhe-c[DCys-Tyr-DAph(Cbm)-Lys-Thr-Cys]-DTyr-NH2 (disulfide) [DOTA-LM3, DOTA-derivatized SST2R antagonist LM3]", "values": [{"measurement": "IC50", "setting": "[4]", "value": "1.4 ± 0.5", "unit": "nM"}]}, {"compound": "C[C@@H](O)[C@@H]1NC(=O)[C@H](CCCCN)NC(=O)[C@@H](Cc2ccc(NC(N)=O)cc2)NC(=O)[C@H](Cc2ccncc2)NC(=O)[C@H](NC(=O)[C@H](Cc2ccc(Cl)cc2)NC(=O)CCCCC2(N(C)CC(=O)O)CN(CC(=O)O)CCN(CC(=O)O)C2)CSSC[C@@H](C(=O)N[C@H](Cc2ccc(O)cc2)C(N)=O)NC1=O", "note": "[DATA^5m-LM4] (X1-[Phe(4-Cl)][dC][4Pal][dPhe(4-NHCONH2)]KTC[dY]-NH2; disulfide 2-7)", "values": [{"measurement": "IC50", "setting": "[3]", "value": "1.24 ± 0.2", "unit": "nM"}]}]}
